Paper PMC6375223

Target: SKP2 (UniProt Q13309)
Assay: co-immunoprecipitation from transfected 293T cells
Conditions: reference: wild-type PDCD4; sites S67

- binding against the reference: lost
Substance: PDCD4 (from UniProt Q53EL6) PDCD4 S67A
